# Assay results taken from IntAct's records for PubMed 31515488.
# B1: Isoform 1 of Cyclin-dependent kinase 4 (Homo sapiens), P11802-1 (parent)
# chain: MATSRYEPVAEIGVGAYGTVYKARDPHSGHFVALKSVRVPNGGGGGGGLPISTVREVALLRRLEAFEHPNVVRLMDVCATSRTDREIKVTLVFEHVDQDLRTYLDKAPPPGLPAETIKDLMRQFLRGLDFLHANCIVHRDLKPENILVTSGGTVKLADFGLARIYSYQMALTPVVVTLWYRAPEVLLQSTYATPVDMWSVGCIFAEMFRRKPLFCGNSEADQLGKIFDLIGLPPEDDWPRDVSLPRGAFPPRGPRPVQSVVPEMEESGAQLLLEMLTFNPHKRISAFRALQHSYLHKDEGNPE
# Variants of: B1
# Details: with ccnd1_human CCND1, P24385
# ccnd1_human CCND1, P24385, sequence (P24385 whole entry): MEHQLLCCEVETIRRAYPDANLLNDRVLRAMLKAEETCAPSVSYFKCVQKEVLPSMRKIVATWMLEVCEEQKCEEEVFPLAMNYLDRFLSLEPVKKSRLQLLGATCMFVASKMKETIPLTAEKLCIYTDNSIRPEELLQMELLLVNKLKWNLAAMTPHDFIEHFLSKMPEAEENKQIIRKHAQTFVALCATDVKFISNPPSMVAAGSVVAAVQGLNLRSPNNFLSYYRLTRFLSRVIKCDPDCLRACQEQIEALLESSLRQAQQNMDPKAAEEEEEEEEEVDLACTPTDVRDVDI
row,Variant,effect of a mutation on the interaction
1,K22R,with no effect
2,V174G,with no effect
3,S267P,with no effect
4,R255C,with no effect
5,G43E,with no effect

# Variants of: B1
# Details: with ccnd2_human CCND2, P30279
# ccnd2_human CCND2, P30279, sequence (P30279 whole entry): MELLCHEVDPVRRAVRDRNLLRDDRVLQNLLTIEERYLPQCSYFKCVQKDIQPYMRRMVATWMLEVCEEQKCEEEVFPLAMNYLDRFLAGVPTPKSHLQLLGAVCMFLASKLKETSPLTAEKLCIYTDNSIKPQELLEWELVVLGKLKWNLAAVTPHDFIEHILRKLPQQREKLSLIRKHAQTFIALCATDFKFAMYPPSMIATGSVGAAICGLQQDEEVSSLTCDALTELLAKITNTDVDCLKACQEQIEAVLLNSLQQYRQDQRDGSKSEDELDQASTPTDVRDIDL
row,Variant,effect of a mutation on the interaction
1,K22R,with no effect
2,V174G,disrupting interaction strength
3,S267P,with no effect
4,R255C,with no effect
5,G43E,with no effect

# Variants of: B1
# Details: with cdn2c_human CDKN2C
row,Variant,effect of a mutation on the interaction
1,K22R,with no effect
2,V174G,with no effect
3,S267P,with no effect
4,R255C,with no effect
5,G43E,with no effect

# Variants of: B1
# Details: with ccnd3_human CCND3, P30281
# ccnd3_human CCND3, P30281, sequence (P30281 whole entry): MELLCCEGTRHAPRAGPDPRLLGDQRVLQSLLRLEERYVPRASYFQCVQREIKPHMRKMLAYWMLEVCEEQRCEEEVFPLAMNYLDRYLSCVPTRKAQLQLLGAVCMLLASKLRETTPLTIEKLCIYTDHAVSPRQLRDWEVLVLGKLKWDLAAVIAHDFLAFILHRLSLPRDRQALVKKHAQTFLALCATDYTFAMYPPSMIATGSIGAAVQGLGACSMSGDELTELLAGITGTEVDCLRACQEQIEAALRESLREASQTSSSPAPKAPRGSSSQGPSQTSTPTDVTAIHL
row,Variant,effect of a mutation on the interaction
1,K22R,with no effect
2,V174G,with no effect
3,S267P,with no effect
4,R255C,with no effect
5,G43E,with no effect

# Variants of: B1
# Details: with ccnd1_human CCND1, P24385
# Remark: another data set of the same source
row,Variant,effect of a mutation on the interaction
1,S52N,with no effect
2,R255H,with no effect
3,N41S,with no effect

# Variants of: B1
# Details: with cdn2b_human CDKN2B
row,Variant,effect of a mutation on the interaction
1,S52N,with no effect

# Variants of: B1
# Details: with ccnd3_human CCND3, P30281
# Remark: another data set of the same source
row,Variant,effect of a mutation on the interaction
1,S52N,with no effect
2,R255H,with no effect

# Variants of: B1
# Details: with cdn2c_human CDKN2C
# Remark: another data set of the same source
row,Variant,effect of a mutation on the interaction
1,S52N,with no effect
2,R255H,with no effect

# Variants of: B1
# Details: with ccnd2_human CCND2, P30279
# Remark: another data set of the same source
row,Variant,effect of a mutation on the interaction
1,R255H,with no effect
